Measurements published in patent publication US11135246B2, “Peptides and combination of peptides for use in immunotherapy against leukemias and other cancers” (Immatics Biotechnologies GmbH, priority 2017, dated 2021).

target: HLA-B*07:02 (Homo sapiens, UniProt P01889); experiment: MHC binding assay, UV-ligand exchange with β2m ELISA, HLA-B*07:02; details: binding to HLA-B*07:02, UV-ligand exchange
Excerpt: Candidate peptides for T cell based therapies according to the present invention were further tested for their MHC binding capacity (affinity). The individual peptide-MHC complexes were produced by UV-ligand exchange, where a UV-sensitive peptide is cleaved upon UV-irradiation, and exchanged with the peptide of interest as analyzed. Only peptide candidates that can effectively bind and stabilize the peptide-receptive MHC molecules prevent dissociation of the MHC complexes. To determine the yield of the exchange reaction, an ELISA was performed based on the detection of the light chain (β2m) of stabilized MHC complexes. The assay was performed as generally described in Rodenko et al. (Rodenko et al., 2006).
96 well MAXISorp plates (NUNC) were coated over night with 2 ug/ml streptavidin in PBS at room temperature, washed 4× and blocked for 1 h at 37° C. in 2% BSA containing blocking buffer. Refolded HLA-A*02:01/MLA-001 monomers served as standards, covering the range of 15-500 ng/ml. Peptide-MHC monomers of the UV-exchange reaction were diluted 100-fold in blocking buffer. Samples were incubated for 1 h at 37° C., washed four times, incubated with 2 ug/ml HRP conjugated anti-β2m for 1 h at 37° C., washed again and detected with TMB solution that is stopped with […]. Absorption was measured at 450 nm. Candidate peptides that show a high exchange yield (preferably higher than 50%, most preferred higher than 75%) are generally preferred for a generation and production of antibodies or fragments thereof, and/or T cell receptors or fragments thereof, as they show sufficient avidity to the MHC molecules and prevent dissociation of the MHC complexes.

Peptide exchange (MHC class I binding score, peptide exchange yield)	Substance
“++++” (>75% = ++++)	229 (SPLGSLARSSL; listed as Homo sapiens) [compound 229]
“+++” (>50 = +++)	230 (KPMKSVLVV; listed as Homo sapiens) [compound 230]
“++” (>20% = ++)	231 (MPLSTIREV; listed as Homo sapiens) [compound 231]
“+++” (>50 = +++)	232 (APRPAGSYL; listed as Homo sapiens) [compound 232]
“+++” (>50 = +++)	233 (SPRVYWLGL; listed as Homo sapiens) [compound 233]
“++” (>20% = ++)	234 (SPKESENAL; listed as Homo sapiens) [compound 234]
“++” (>20% = ++)	235 (SPSLPSRTL; listed as Homo sapiens) [compound 235]
“+++” (>50 = +++)	236 (RPSNKAPLL; listed as Homo sapiens) [compound 236]
“++” (>20% = ++)	237 (SPWLHAPSL; listed as Homo sapiens) [compound 237]
“+++” (>50 = +++)	238 (SPRSWIQVQI; listed as Homo sapiens) [compound 238]
“++” (>20% = ++)	239 (APSKTSLIM; listed as Homo sapiens) [compound 239]
“+++” (>50 = +++)	240 (SPSLPNITL; listed as Homo sapiens) [compound 240]
“+++” (>50 = +++)	241 (APAPAEKTPV; listed as Homo sapiens) [compound 241]
“++” (>20% = ++)	242 (SPFSFHHVL; listed as Homo sapiens) [compound 242]
“++” (>20% = ++)	243 (LPKVQSIQL; listed as Homo sapiens) [compound 243]
“+++” (>50 = +++)	244 (MPSSDTTVTF; listed as Homo sapiens) [compound 244]
“++” (>20% = ++)	245 (SPLSHHSQL; listed as Homo sapiens) [compound 245]
“++” (>20% = ++)	246 (YPGWHSTTI; listed as Homo sapiens) [compound 246]
“++” (>20% = ++)	247 (QPSPARAPAEL; listed as Homo sapiens) [compound 247]
“++” (>20% = ++)	248 (LPYDSKHQI; listed as Homo sapiens) [compound 248]
“++” (>20% = ++)	249 (SPADHRGYASL; listed as Homo sapiens) [compound 249]
“++” (>20% = ++)	250 (VPNLQTVSV; listed as Homo sapiens) [compound 250]
“+++” (>50 = +++)	251 (QPRLFTMDL; listed as Homo sapiens) [compound 251]
“++” (>20% = ++)	252 (RPHIPISKL; listed as Homo sapiens) [compound 252]
“+++” (>50 = +++)	253 (RPFADLLGTAF; listed as Homo sapiens) [compound 253]
“+++” (>50 = +++)	254 (SPRNLQPQRAAL; listed as Homo sapiens) [compound 254]
“++” (>20% = ++)	255 (YPGSDRIML; listed as Homo sapiens) [compound 255]
